Data as given in IntAct's records for PubMed 22056988.

B1: Catenin beta-1 (Homo sapiens), P35222 (parent)
chain: MATQADLMELDMAMEPDRKAAVSHWQQQSYLDSGIHSGATTTAPSLSGKGNPEEEDVDTSQVLYEWEQGFSQSFTQEQVADIDGQYAMTRAQRVRAAMFPETLDEGMQIPSTQFDAAHPTNVQRLAEPSQMLKHAVVNLINYQDDAELATRAIPELTKLLNDEDQVVVNKAAVMVHQLSKKEASRHAIMRSPQMVSAIVRTMQNTNDVETARCTAGTLHNLSHHREGLLAIFKSGGIPALVKMLGSPVDSVLFYAITTLHNLLLHQEGAKMAVRLAGGLQKMVALLNKTNVKFLAITTDCLQILAYGNQESKLIILASGGPQALVNIMRTYTYEKLLWTTSRVLKVLSVCSSNKPAIVEAGGMQALGLHLTDPSQRLVQNCLWTLRNLSDAATKQEGMEGLLGTLVQLLGSDDINVVTCAAGILSNLTCNNYKNKMMVCQVGGIEALVRTVLRAGDREDITEPAICALRHLTSRHQEAEMAQNAVRLHYGLPVVVKLLHPPSHWPLIKATVGLIRNLALCPANHAPLREQGAIPRLVQLLVRAHQDTQRRTSMGGTQQQFVEGVRMEEIVEGCTGALHILARDVHNRIVIRGLNTIPLFVQLLYSPIENIQRVAAGVLCELAQDKEAAEAIEAEGATAPLTELLHSRNEGVATYAAAVLFRMSEDKPQDYKKRLSVELTSSLFRTEPMAWNETADLGLDIGAQGEPLGYRQDDPSYRSFHSGGYGQDALGMDPMMEHEMGGHHPGADYPVDGLPDLGHAQDLMDGLPPGDSNQLAWFDTDL

Variants of: B1
Settings: with src_human SRC

Row | Variant | effect of a mutation on the interaction
1 | Y333F | decreasing interaction
